Assay results from patent US20100233714.
Like-named read-outs stand apart in the source and are kept apart here.

Key:
[1] = test system: IgG Fab2 fragment (mouse) (Mus musculus); test: filter; details: pH 6, 41 mM Na+
[2] = test system: IgG, polyclonal mixed human (Homo sapiens); test: filter; details: pH 6, 41 mM Na+
[3] = test system: IgM, monoclonal human (Homo sapiens); test: filter; details: pH 6, 41 mM Na+
[4] = test system: IgG1, monoclonal human (Homo sapiens); test: filter; details: pH 6, 41 mM Na+
[5] = test system: IgG2, monoclonal human (Homo sapiens); test: filter; details: pH 6, 41 mM Na+
[6] = test system: IgG, polyclonal mouse (Mus musculus); test: filter; details: pH 6, 41 mM Na+
[7] = test system: IgG Fab2 fragment (human) (Homo sapiens); test: filter; details: pH 6, 41 mM Na+
[8] = test system: IgA, monoclonal human (Homo sapiens); test: filter; details: pH 6, 41 mM Na+
[9] = test system: IgG3, monoclonal human (Homo sapiens); details: ultrafiltration, Picogreen; 37.5 mM NaCl, 3.75 mM Na citrate, pH 6.0
[10] = test system: IgG4, monoclonal human (Homo sapiens); details: ultrafiltration, Picogreen, 37.5 mM NaCl, 3.75 mM Na citrate, pH 6.0
[11] = test system: IgG3, monoclonal human (Homo sapiens); test: filter; details: pH 6, 41 mM Na+
[12] = test system: IgG Fc fragment (human) (Homo sapiens), P01857-1; test: filter; details: pH 6, 41 mM Na+
[13] = hexaethylene glycol (HEG, iSp18) linkers as loops

TTTTCGCGCGTTAACGCGCGAA [RAD16]
Ka [1]: 6.11 log10 M-1 | Ka ([2]; pH5 8.22, pH7 7.25, pH8 6.79): 7.8 log10 M-1 | Ka [3]: 6.26 log10 M-1 | Ka [4]: 6.87 log10 M-1 | Ka [5]: 6.11 log10 M-1 | Ka [6]: 7.07 log10 M-1 | Ka [7]: 6.23 log10 M-1 | Ka [8]: 6.46 log10 M-1 | Ka [9]: 6.31 log10 M-1 | Ka [10]: 6.54 log10 M-1

CCTTCCTTTGGAAGGTTG [RAD23]
Ka [1]: 6.33 log10 M-1 | Ka ([2]; pH5 7.37, pH7 6.31, pH8 6.21): 6.88 log10 M-1 | Ka [3]: 6.08 log10 M-1 | Ka [4]: 6.14 log10 M-1 | Ka [5]: 6.86 log10 M-1 | Ka [6]: 6.77 log10 M-1 | Ka [7]: 5.64 log10 M-1 | Ka [11]: 5.62 log10 M-1 | Ka [8]: 6.38 log10 M-1 | Ka [10]: 5.97 log10 M-1

TTTTCGCGCGTACGCGCGCGAA [RAD15]
Ka [1]: 6.21 log10 M-1 | Ka ([2]; pH5 7.65, pH7 6.33, pH8 6.19): 7 log10 M-1 | Ka [3]: 6.19 log10 M-1 | Ka [4]: 6.39 log10 M-1 | Ka [5]: 6.18 log10 M-1 | Ka [6]: 6.35 log10 M-1 | Ka [7]: 5.33 log10 M-1 | Ka [8]: 6.23 log10 M-1 | Ka [9]: 6.22 log10 M-1 | Ka [10]: 6.13 log10 M-1

TGGTTGGTTTTTGGAAGGATTTTTTCCTTCC [RAD3]
Ka [1]: 7.09 log10 M-1 | Ka ([2]; pH5 8.60, pH7 6.86, pH8 6.76, Table 2 pH 6 6.71): 7.79 log10 M-1 | Ka [3]: 6.71 log10 M-1 | Ka [4]: 7.45 log10 M-1 | Ka [5]: 7.36 log10 M-1 | Ka [6]: 7.69 log10 M-1 | Ka [7]: 6.97 log10 M-1 | Ka [11]: 6.69 log10 M-1 | Ka [12]: 6.34 log10 M-1 | Ka [8]: 7.38 log10 M-1 | Ka [10]: 7.2 log10 M-1

CGCGAAAACGCG [RAD22]
Ka ([2]; pH5 5.95, pH7 6.04, pH8 5.97): 6.25 log10 M-1

CCTCTTCCTTCTCCGGAGAAG [RAD1]
Ka ([10]; hexaethylene glycol (iSp18) linkers between the three segments): 6.37 log10 M-1

GGAAAGGTTTTTGGAAAGGTTTTTCCTTTCC [RAD6]
Ka ([2]; pH5 8.50, pH7 6.86, pH8 6.74, Table 2 pH 6 6.84): 7.96 log10 M-1

GGTTGGTTTGGTTGG [RAD13]
Ka ([2]; pH5 7.55, pH7 6.46, pH8 6.53): 6.96 log10 M-1

TTTGGTTGGTTTGGTTGG [RAD19]
Ka ([2]; inosine (I) at printed positions [inosine (written G): 4,14], pH5 7.82, pH7 6.50, pH8 6.04): 7.14 log10 M-1

TGGGCCGGTAACGGATTACCGTAAGGTCCC [RAD11]
Ka ([2]; pH5 8.31, pH7 6.85, pH8 6.85, Table 2 pH 6 6.51): 7.64 log10 M-1

GAGAGAGTTTTTGAGAGAGTTTTTCTCTCTC [RAD7]
Ka [1]: 6.97 log10 M-1 | Ka ([2]; pH5 8.51, pH7 6.97, pH8 6.79, Table 2 pH 6 6.86): 8.04 log10 M-1 | Ka [3]: 6.89 log10 M-1 | Ka [4]: 7.3 log10 M-1 | Ka [5]: 7.25 log10 M-1 | Ka [6]: 7.69 log10 M-1 | Ka [7]: 6.68 log10 M-1 | Ka [11]: 6.74 log10 M-1 | Ka [12]: 5.99 log10 M-1 | Ka [8]: 7.33 log10 M-1 | Ka [10]: 7.16 log10 M-1

GAGTGAGTCTCAGTTAGTTTCGATTGATTCT [RAD5]
Ka ([2]; pH5 8.75, pH7 7.11, pH8 6.81, Table 2 pH 6 6.82): 8.03 log10 M-1

CCTCTTCHEGCTTCTCCHEGGGAGAAG [RAD1]
Ka [1, 13]: 6.38 log10 M-1 | Ka ([2]; hexaethylene glycol (HEG, iSp18) linkers as loops, ultrafiltration, pH5 7.45, pH7 6.49, pH8 6.30, Table 2 (0.15 M NaCl, 1 mM MgCl2, pH 6) 7.01): 6.51 log10 M-1 | Ka [3, 13]: 6.32 log10 M-1 | Ka [4, 13]: 6.38 log10 M-1 | Ka [5, 13]: 6.51 log10 M-1 | Ka [6, 13]: 6.6 log10 M-1 | Ka [7, 13]: 5.82 log10 M-1 | Ka [11, 13]: 6.17 log10 M-1 | Ka [12, 13]: 5.8 log10 M-1 | Ka [8, 13]: 6.37 log10 M-1

TGGAGTCTGCGCGAGTCAGCGCTCAAGATC [RAD8]
Ka ([2]; pH5 8.41, pH7 6.86, pH8 6.84, Table 2 pH 6 6.13): 7.85 log10 M-1

TTTTCGCGTGTGTGCGCGAA [RAD12]
Ka ([2]; pH5 7.61, pH7 6.37, pH8 5.74): 6.98 log10 M-1

CCCTCCCTGGGCTTTTTTTGATTTTTCTTAA [RAD4]
Ka [1]: 7.09 log10 M-1 | Ka ([2]; pH5 8.48, pH7 7.10, pH8 7.02, Table 2 pH 6 6.89): 8.13 log10 M-1 | Ka [3]: 6.89 log10 M-1 | Ka [4]: 7.52 log10 M-1 | Ka [5]: 7.67 log10 M-1 | Ka [6]: 7.71 log10 M-1 | Ka [7]: 6.89 log10 M-1 | Ka [11]: 6.66 log10 M-1 | Ka [12]: 5.26 log10 M-1 | Ka [8]: 7.66 log10 M-1 | Ka [10]: 7.13 log10 M-1

CTCTCTCTTTTTCTCTCTCTTTTTGAGAGAG [RAD9]
Ka [1]: 6.75 log10 M-1 | Ka ([2]; pH5 8.67, pH7 7.04, pH8 6.94, Table 2 pH 6 7.02): 7.74 log10 M-1 | Ka [3]: 6.79 log10 M-1 | Ka [4]: 7.05 log10 M-1 | Ka [5]: 7.05 log10 M-1 | Ka [6]: 7.46 log10 M-1 | Ka [7]: 6.44 log10 M-1 | Ka [12]: 5.87 log10 M-1 | Ka [8]: 6.95 log10 M-1 | Ka [9]: 6.62 log10 M-1 | Ka [10]: 7.06 log10 M-1

CCTCTTCTTTTTCTTCTC [RAD20]
Ka [1]: 7.41 log10 M-1 | Ka ([2]; pH5 8.11, pH7 7.40, pH8 6.64): 7.98 log10 M-1 | Ka [3]: 7.02 log10 M-1 | Ka [4]: 7.34 log10 M-1 | Ka [5]: 7.85 log10 M-1 | Ka [6]: 8.3 log10 M-1 | Ka [7]: 6.9 log10 M-1 | Ka [11]: 6.84 log10 M-1 | Ka [12]: 5.96 log10 M-1 | Ka [8]: 7.53 log10 M-1 | Ka [10]: 7.67 log10 M-1

TGGGCCGGTAACGGGTTACCGTAAGGTCCC [RAD10]
Ka [1]: 6.76 log10 M-1 | Ka ([2]; pH5 8.41, pH7 6.81, pH8 6.72, Table 2 pH 6 6.31): 7.65 log10 M-1 | Ka [3]: 6.7 log10 M-1 | Ka [4]: 7.04 log10 M-1 | Ka [5]: 7.01 log10 M-1 | Ka [6]: 7.53 log10 M-1 | Ka [7]: 6.43 log10 M-1 | Ka [12]: 5.92 log10 M-1 | Ka [8]: 6.92 log10 M-1 | Ka [9]: 6.62 log10 M-1 | Ka [10]: 7 log10 M-1

CCTCTTCTTTTTCTTCTCCTTTTTGGAGAAG [RAD2 (triplex 31mer)]
Ka [1]: 6.71 log10 M-1 | Ka ([2]; pH5 8.74, pH7 6.96, pH8 6.57, Table 2 pH 6 6.96): 7.61 log10 M-1 | Ka [3]: 6.73 log10 M-1 | Ka [4]: 7.04 log10 M-1 | Ka [5]: 7.06 log10 M-1 | Ka [6]: 7.49 log10 M-1 | Ka [7]: 6.45 log10 M-1 | Ka [11]: 6.64 log10 M-1 | Ka [12]: 5.86 log10 M-1 | Ka [8]: 6.9 log10 M-1 | Ka [10]: 7.08 log10 M-1
